Reference: patent US20240108693A1, “METHOD OF TREATING LOWER URINARY TRACT SYMPTOMS” (Versameb AG, priority 2021, published 2024)
Entries after “also recorded” stand apart in the source; their conditions may differ.

B1: Cpd.1A: mRNA encoding human BDNF signal peptide, IGF1 pro-domain and mature human IGF1 (SEQ ID NO: 8), from pMA-T vector, N1-methylpseudouridine modified (nucleic acid)
DNA: AUGACCAUCCUGUUUCUGACAAUGGUCAUCAGCUACUUCGGCUGCAUGAAGGCCGUGAAGAUGCACACCAUGAGCAGCAGCCACCUGUUCUAUCUGGCCCUGUGCCUGCUGACCUUUACCAGCUCUGCUACCGCCGGACCUGAGACACUUUGUGGCGCUGAACUGGUGGACGCCCUGCAGUUUGUGUGUGGCGACAGAGGCUUCUACUUCAACAAGCCCACAGGCUACGGCAGCAGCUCUAGAAGGGCUCCUCAGACCGGAAUCGUGGACGAGUGCUGCUUCAGAAGCUGCGACCUGCGGCGGCUGGAAAUGUAUUGUGCCCCUCUGAAGCCUGCCAAGAGCGCCUAA
modifications: mRNA, N1-methylpseudouridine modified; misc_feature 1..348 RNA sequence of Cpd.1A and Cpd.1B; misc_feature 1..348 m1f (uridine is 1-methylpseudouridine)
B2: Cpd.1B: mRNA encoding human BDNF signal peptide, pro-IGF1 and mature IGF1 without E-peptide, 120 bp poly-A tail, from pMK vector (nucleic acid)
chain: B1 DNA
modifications: 1-methylpseudouridine; poly-A tail; misc_feature 1..348 RNA sequence of Cpd.1A and Cpd.1B; misc_feature 1..348 m1f (uridine is 1-methylpseudouridine)
notes: mRNA encoding human BDNF signal peptide, pro-IGF1 and mature IGF1 without E-peptide, 120 bp poly-A tail, from pMK vector

Key:
[1] = test system: vaginal distension (VD) animal model of stress urinary incontinence (SUI); assay: Leak point pressure (LPP) in rat vaginal distension model for stress urinary incontinence; assay type: in vivo; settings: for area under curve (AUC) of urinary bladder leak point pressure: Day 0-14 after VD; for time course of leak point pressure (LPP): Day 4, 9 and 14 after VD; for leak point pressure (LPP) of urinary bladder: Cpd.1B single urethral injection Day 0, Duloxetine 20 mg/kg oral daily
Source text: The urethra is a conduit for elimination of urine from the bladder. It is composed of an epithelium lining the lumen, lamina propria with a prominent vascular plexus, smooth muscle and an outer layer of striated muscle (called external urethral sphincter). The urethra functions in coordination with the bladder: it remains closed during bladder filling to maintain continence and it relaxes during voiding to allow flow of urine. These processes are controlled by parasympathetic, sympathetic and somatic innervation. Parasympathetic nerves release nitric oxide to relax the urethra during bladder voiding, while sympathetic nerves release noradrenaline to contract the urethra during bladder filling. The striated muscle receives somatic innervation that contracts the muscle ensuring continence during bladder filling. Using the model of stress urinary incontinence (SUI) in female rats the hypothesis was tested if Cpd.1B can be effective against SUI in the vaginal distension (VD) model by facilitating muscle growth and regeneration. […] Vaginal Distension (VD) was applied for 4 hours to female Sprague-Dawley Female rats under isoflurane anesthesia. 1 hour after the end of VD, the abdomen was surgically opened to access the urethra and rats received two injections of vehicle or Cpd.1B (10 μg each) through a Hamilton syringe at approximately 5 and 7 o'clock positions. Sham treated animals (catheter without inflation) were treated with vehicle as controls. […] Rats were then put in a supine position on a heated pad at 37° C. The bladder was emptied manually and filled with room temperature saline through the bladder catheter at 3.0 ml/h. After bladder filling with 0.4-0.5 ml, the abdomen was slowly depressed manually to increase abdominal pressure until fluid leakage was observed from the urethral orifice.

[2] = test system: vaginal distension (VD) animal model of stress urinary incontinence (SUI); assay: Histological assessment of urethral integrity after vaginal distension (Masson trichrome scores); assay type: in vivo, rat; settings: mid-urethra cross-sections, Day 9 and 14 after VD
Procedure: Vaginal Distension (VD) was applied for 4 hours to female Sprague-Dawley Female rats under isoflurane anesthesia. 1 hour after the end of VD, the abdomen was surgically opened to access the urethra and rats received two injections of vehicle or Cpd.1B (10 μg each) through a Hamilton syringe at approximately 5 and 7 o'clock positions. Sham treated animals (catheter without inflation) were treated with vehicle as controls. […] From 2 animals of each group, the urethra-vaginal tissues were harvested (cross-section of the mid-urethra and anterior vagina) on Day 9 and 14, and the tissues immersed in neutral buffered formalin containing 4% formaldehyde for a period of 4 h, then embedded in paraffin. Sections of 5 μm were stained with the standard procedures of Hemalun-Eosin (HE), Masson Trichrome (MT) and Picrosirius red. Based on morphology and tissue integrity, histology scores were allocated to the outer circular muscle layer (OCML), the inner longitudinal muscle layer (ILML) and the endomysial tissue of mid-urethral sections, and Day 9 and 14 sampled. The following histological scores were applied to the different layers and averaged per group: • Outer Circular Muscle Layer (OCML, skeletal muscle): • 0=circumferential regular • 1=circumferential focally thinned • 2=discontinued • 3=mostly absent • Inner Longitudinal Muscle Layer (ILML, smooth muscle): • 0=mid-sized to large fascicles • 1=small fascicles) • Endomysial tissue: • 0=thin, dense • 1=thickening by loose connective tissue • 2=focal replacement of muscles by connective tissue • 3=replacement of muscles by connective tissue

IGF1 protein = IGF1 protein expression in rat TA muscle after i.m. injection of Cpd.1A (human-specific IGF1 ELISA); assay type: in vivo; settings: 3 and 10 μg doses i.m., after a delay of several hours
Procedure: (§1) For assessment of Cpd.1A exposure in rat tibialis anterior (TA) muscle, two injections of each 15 μl Cpd.1A at different doses (1, 3 or 10 μg per injection) into TA muscles of male or female rats were performed in adult rats. After 6, 24, 48 and 72 hours, TA muscles were harvested, divided into two parts to analyse RNA and protein content, and Cpd.1A RNA content was analysed by qPCR and IGF1 protein levels by human-specific IGF1 ELISA (Cat. #E20, Mediagnost, Reutlingen, Germany). Total RNA was extracted from flash frozen TA muscle tissues (ca. 10 mg) using Norgen's Animal Tissue RNA Purification Kit (Cat. #25700). A TaqMan assay was developed and validated to quantify Cpd.1A and Cpd.1B RNA from muscle tissues through absolute quantification. Both forward primer (5′ […] 3′; SEQ ID NO: 14) and reverse primer (5′ […] 3′; SEQ ID NO: 15) along with labelled probe with quencher (5′ FAM-CTGCTGCCGTAGCCTG-MGB-Q500 3′; SEQ ID NO: 16) were designed to be specifically bind to Cpd.1A and Cpd.1B RNA and ordered (www.microsynth.com). […] The Cpd.1A RNA copy numbers in TA muscles were assessed by calculating unknown values from standard curves. From qPCR data, half-life was calculated using a monoexponential decay function. […] After 24 and 72 hours, tissues were harvested, and Cpd.1B content was analysed by qPCR as specified above where standard curve template generated from Cpd.1B mRNA.

[3] = rat, in vivo
Procedure: as §1

Row | Molecule | area under curve (AUC) of urinary bladder leak point pressure [1] | time course of leak point pressure (LPP) [1] | leak point pressure (LPP) of urinary bladder ([1]; Day 4 after VD, vs. VD vehicle) | leak point pressure (LPP) of urinary bladder ([1]; Day 14 after VD) | endomysial tissue histology score [2] | inner longitudinal muscle layer (ILML) histology score [2] | outer circular muscle layer (OCML) histology score [2] | endomysial tissue histology score ([2]; listed as duloxetine) | inner longitudinal muscle layer (ILML) histology score ([2]; listed as duloxetine) | outer circular muscle layer (OCML) histology score ([2]; listed as duloxetine) | duration of IGF1 protein production at relevant concentrations in TA muscle (IGF1 protein) | duration of relevant Cpd.1A exposure in TA muscle [3] | half-life of Cpd.1A in TA muscle ([3]; im, 3 ug) [h] | leak point pressure (LPP) of urinary bladder ([1]; Day 9 after VD)
1 | CNCC[C@H](Oc1cccc2ccccc12)c1cccs1 [Duloxetine, reference compound] | clear increase in AUC; also recorded: beneficial efficacy | initial increase in LPP that declined thereafter to normal levels on Day 14 | initial increase of LPP; also recorded: significant increase of LPP; also recorded: increased LPP | control levels | further worsened this pathology | further increased the ILML score | further deteriorated the OCML pathology | worsens the endomysium score | worsens the ILML score | tends to worsen the OCML disorganization |  |  |  | 
2 | B1 |  |  |  |  |  |  |  |  |  |  | up to 72 hours | up to 72 hours | 21 | 
3 | B2 | clear increase in AUC; also recorded: beneficial efficacy | increase of LPP over time that returned to normal levels by Day 14 | significant increase in LPP; also recorded: significant increase of LPP; also recorded: increased LPP | full recovery to healthy LPP levels | completely prevented this impairment; also recorded: reverted | preventing this disruption; also recorded: reverted | prevented this trend; also recorded: reverted |  |  |  |  |  |  | further increased; also recorded: did not reach significance; also recorded: still showed increased LPP
